{"source": "paper PMC10410519", "origin": "cited, not measured here", "biological_target": "Growth hormone receptor (Homo sapiens) (UniProt P10912)", "assay": "competition", "data": [{"substance": "hGH (from UniProt P01241)", "values": [{"measurement": "Ki", "value": 3.5, "unit": "nM"}]}]}
